From patent publication US20230357429A1 (JANUX THERAPEUTICS, published 2023)
Changes are numbered by the printed parent chain. In names and notes the source's numbering stands. Where two headings read alike, the source gives them in different places. Blank lines part the entries; values can stand above or below the binder they belong to. Where no end group is shown, it is not given here.

Tests used:
[1] = target: T1, Human TROP2 Full length (human, UniProt P09758 31-323); experiment: cell-based or functional assay
T1 sequence: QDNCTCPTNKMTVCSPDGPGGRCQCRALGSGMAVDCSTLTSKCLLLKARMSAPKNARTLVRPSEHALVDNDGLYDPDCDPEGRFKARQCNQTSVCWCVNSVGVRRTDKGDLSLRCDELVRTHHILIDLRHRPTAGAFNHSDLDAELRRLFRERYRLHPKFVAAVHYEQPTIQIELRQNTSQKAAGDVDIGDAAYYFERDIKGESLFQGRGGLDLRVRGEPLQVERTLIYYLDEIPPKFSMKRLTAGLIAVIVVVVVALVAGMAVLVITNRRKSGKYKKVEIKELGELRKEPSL

[2] = target: T2, Cyno TROP2 Full length (cynomolgus monkey, UniProt P09758 31-323 (human entry)); experiment: cell-based or functional assay
T2 chain: T1 sequence with M32V, S63N, I200V, M262V, T268S

[3] = target: T3, Human TROP2 ECD (31-274 AA), biotinylated (human, UniProt P09758 31-274, biotinylated (site not stated)); experiment: ELISA on immobilized TROP2
T3 construct: also called tumor-associated calcium signal transducer 2; Human TROP2-biotin
T3 sequence: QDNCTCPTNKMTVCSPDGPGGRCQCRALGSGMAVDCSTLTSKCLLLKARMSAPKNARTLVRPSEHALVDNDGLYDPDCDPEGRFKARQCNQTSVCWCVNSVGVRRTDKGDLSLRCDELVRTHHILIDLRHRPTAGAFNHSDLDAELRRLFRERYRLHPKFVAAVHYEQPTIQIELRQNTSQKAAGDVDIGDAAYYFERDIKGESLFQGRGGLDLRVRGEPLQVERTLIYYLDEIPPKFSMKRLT

[4] = target: T3, Human TROP2 ECD (31-274 AA), …; experiment: ELISA on immobilized TROP2; remark: listed apart in the source
[5] = target: T3, Human TROP2 ECD (31-274 AA), …; experiment: ELISA on immobilized TROP2; remark: listed apart in the source
[6] = target: T3, Human TROP2 ECD (31-274 AA), …; experiment: ELISA on immobilized TROP2; remark: listed apart in the source
[7] = target: T3, Human TROP2 ECD (31-274 AA), …; experiment: ELISA, ratio of EC50 to that of TBD-1 wt
[8] = target: T3, Human TROP2 ECD (31-274 AA), …; experiment: ELISA, biotinylated TROP2 ECD on neutravidin plate, Fab titrated
[9] = target: T3, Human TROP2 ECD (31-274 AA), …; experiment: BLI (Octet), dissociation half-life from biotinylated human TROP2 ECD
[10] = target: T3, Human TROP2 ECD (31-274 AA), …; experiment: BLI (Octet), biotinylated human TROP2 ECD on SAX sensor, Fab 6.25-50 nM
[11] = target: T3, Human TROP2 ECD (31-274 AA), …; experiment: ELISA: biotinylated TROP2 captured on neutravidin plate, Fab titrated, HRP secondary antibody
[12] = target: T1, Human TROP2 Full length; experiment: cell-based or functional assay; remark: listed apart in the source
[13] = target: T2, Cyno TROP2 Full length; experiment: cell-based or functional assay
[14] = target: T4, Peptide-68 (cysteine pairing not given here; also: biotinylated, site not given here); experiment: ELISA, TCE on captured biotin-peptide
T4 construct: mask peptide for the CD3 scFv
T4 peptide: DWCWYSPDNDGLCD

[15] = target: T5, Peptide-69 (cysteine pairing not given here; also: biotinylated, site not given here); experiment: ELISA, TCE on captured biotin-peptide
T5 construct: mask peptide for the CD3 scFv
T5 peptide: SECLVDLQSDPCYW

[16] = target: T6, Peptide-70 (cysteine pairing not given here; also: biotinylated, site not given here); experiment: ELISA, TCE on captured biotin-peptide
T6 construct: mask peptide for the CD3 scFv
T6 peptide: YLCGPDGDETLACY

[17] = target: T7, Peptide-71 (cysteine pairing not given here; also: biotinylated, site not given here); experiment: ELISA, TCE on captured biotin-peptide
T7 construct: mask peptide for the CD3 scFv
T7 peptide: VDCGPDGDESILCY

CyTROP2 HEK293 EC50 (pM) [2]: 17300 pM
B1: PC-47 (bispecific antibody)
light: GGVDFCGLYHWPICYQGGGGSGGGGGSGGGGSGGASSGAGGSDIQLTQSPSSLSASVGDRVSITCKASQDVSIAVAWYQQKPGKAPKLLIYSASYRYTGVPDRFSGSGSGTDFTLTISSLQPEDFAVYYCQQHYITPLTFGAGTKVEIKRTVAAPSVFIFPPSDEQLKSGTASVVCLLNNFYPREAKVQWKVDNALQSGNSQESVTEQDSKDSTYSLSSTLTLSKADYEKHKVYACEVTHQGLSSPVTKSFNRGEC
heavy: not shown
H292 Cytotoxicity EC50 (pM) [1]: > 100000 pM

EC50 [3]: 419 nM
EC50 [4]: > 1000 nM
B2: PC-13 (bispecific antibody)
light: not shown
heavy: GGVDFCGLYHWPICYQGGGGSGGLSGRSDAGSPLGLAGSGGSQVQLQQSGSELKKPGASVKVSCKASGYTFTNYGMNWVKQAPGQGLKWMGWINTYTGEPTYTDDFKGRFAFSLDTSVSTAYLQISSLKADDTAVYFCAAGGFGSSYWYFDVWGQGSLVTVSSASTKGPSVFPLAPSSKSTSGGTAALGCLVKDYFPEPVTVSWNSGALTSGVHTFPAVLQSSGLYSLSSVVTVPSSSLGTQTYICNVNHKPSNTKVDKKVEPKSC
notes: anti-TROP2 R98A

EC50 [5]: 926 nM
B3: PC-17 (bispecific antibody)
light: not shown
heavy: B2 heavy with V3I, G7A, L8I, H10Q, I13V, Y15R, Q16S, A140R, D151A
notes: anti-TROP2 D109A

EC50 [6]: 168 nM
B4: PC-21 (bispecific antibody)
light: not shown
heavy: B2 heavy with G7A, A140R, D151A
notes: anti-TROP2 D109A

EC50 [4]: > 1000 nM
B5: PC-23 (bispecific antibody)
light: not shown
heavy: B2 heavy with G17V
notes: anti-TROP2 R98A

EC50 [6]: 214 nM
B6: PC-27 (bispecific antibody)
light: not shown
heavy: B2 heavy with G7A, L8I, H10S, Y15K, Q16I, A140R, D151A
notes: anti-TROP2 D109A

EC50 [4]: > 1000 nM
B7: PC-19 (bispecific antibody)
light: not shown
heavy: B2 heavy with G7A, A140R, F150A
notes: anti-TROP2 F108A

Fold shift in EC50 relative to wt [7]: 20.5 fold
EC50 [8]: 4.1 nM
t1/2 [9]: 8 min
Kd [10]: 4.76 nM
EC50 [11]: 4.11 nM
B8: TBD-21 (anti-TROP2 Fab, HC F108A) (Fab, V domains shown)
VH: QVQLQQSGSELKKPGASVKVSCKASGYTFTNYGMNWVKQAPGQGLKWMGWINTYTGEPTYTDDFKGRFAFSLDTSVSTAYLQISSLKADDTAVYFCARGGFGSSYWYADVWGQGSLVTVSS
VL: DIQLTQSPSSLSASVGDRVSITCKASQDVSIAVAWYQQKPGKAPKLLIYSASYRYTGVPDRFSGSGSGTDFTLTISSLQPEDFAVYYCQQHYITPLTFGAGTKVEIKR
notes: also called TBD-21 (HC F108A mutant)

Fold shift in EC50 relative to wt [7]: 1 fold
EC50 [8]: 0.2 nM
t1/2 [9]: 34 min
Kd [10]: 0.401 nM
EC50 [11]: 0.236 nM
B9: TBD-23 (anti-TROP2 Fab, HC V110A) (Fab, V domains shown)
VH: B8 VH with A108F, V110A
VL: B8 VL

Fold shift in EC50 relative to wt [7]: 5.5 fold
EC50 [8]: 1.1 nM
t1/2 [9]: 33 min
Kd [10]: 2.35 nM
EC50 [11]: 1.1 nM
B10: TBD-22 (anti-TROP2 Fab, HC D109A) (Fab, V domains shown)
VH: B8 VH with A108F, D109A
VL: B8 VL
notes: also called TBD-22 (HC D109A mutant)

CyTROP2 HEK293 EC50 (pM) [2]: > 100000 pM
B11: PC-31 (bispecific antibody)
light: GGVDFCGLYHWPICYQGGGGSGGLSGRSDAGSPLGLAGSGGSDIQLTQSPSSLSASVGDRVSITCKASQDVSIAVAWYQQKPGKAPKLLIYSASYRYTGVPDRFSGSGSGTDFTLTISSLQPEDFAVYYCQQHYITPLTFGAGTKVEIKRTVAAPSVFIFPPSDEQLKSGTASVVCLLNNFYPREAKVQWKVDNALQSGNSQESVTEQDSKDSTYSLSSTLTLSKADYEKHKVYACEVTHQGLSSPVTKSFNRGEC
heavy: not shown
H292 Cytotoxicity EC50 (pM) [1]: > 100000 pM

CyTROP2 HEK293 EC50 (pM) [2]: 35900 pM
B12: PC-32 (bispecific antibody)
light: B11 light
heavy: not shown
H292 Cytotoxicity EC50 (pM) [1]: 28100 pM

EC50 [3]: 7.29 nM
EC50 [4]: 2.5 nM
B13: TCE-4 (bispecific antibody)
light: not shown
heavy: QVQLQQSGSELKKPGASVKVSCKASGYTFTNYGMNWVKQAPGQGLKWMGWINTYTGEPTYTDDFKGRFAFSLDTSVSTAYLQISSLKADDTAVYFCARGGFGSSYWYADVWGQGSLVTVSSASTKGPSVFPLAPSSKSTSGGTAALGCLVKDYFPEPVTVSWNSGALTSGVHTFPAVLQSSGLYSLSSVVTVPSSSLGTQTYICNVNHKPSNTKVDKKVEPKSC

CyTROP2 HEK293 EC50 (pM) [13]: 0.11 pM
B14: TCE-7 (bispecific antibody)
light: DIQLTQSPSSLSASVGDRVSITCKASQDVSIAVAWYQQKPGKAPKLLIYSASYRYTGVPDRFSGSGSGTDFTLTISSLQPEDFAVYYCQQHYITPLTFGAGTKVEIKRTVAAPSVFIFPPSDEQLKSGTASVVCLLNNFYPREAKVQWKVDNALQSGNSQESVTEQDSKDSTYSLSSTLTLSKADYEKHKVYACEVTHQGLSSPVTKSFNRGEC
heavy: not shown
HCT116 Cytotoxicity EC50 (pM) [12]: 113 pM

CyTROP2 HEK293 EC50 (pM) [13]: 0.8 pM
B15: TCE-48 (bispecific antibody)
light: B14 light
heavy: not shown
H292 Cytotoxicity EC50 (pM) [12]: 7.2 pM

CyTROP2 HEK293 EC50 (pM) [13]: 3.6 pM
B16: TCE-38 (bispecific antibody)
light: B14 light
heavy: not shown
HCT116 Cytotoxicity EC50 (pM) [12]: > 3000 pM

EC50 [14]: 0.41 nM
EC50 [15]: 0.31 nM
EC50 [16]: 0.29 nM
EC50 [17]: 0.32 nM
B17: TCE-34 (anti-CD3 scFv P41S, A49G, N87S, L150F, T151S, G163R, P175A, K181T, T200V, A202D, L208I, G211N, L217I, S218T, V220A, P222A, E223D, A226S, E227D; … (bispecific antibody)
light: B14 light
heavy: EVQLVESGGGLVQPGGSLKLSCAASGFTFNKYAMNWVRQASGKGLEWVGRIRSKYNNYATYYADSVKDRFTISRDDSKNTAYLQMNSLKTEDTAVYYCVRHGNFGNSYISYWAYWGQGTLVTVSSGGGGSGGGGSGGGGSQTVVTQEPSFSVSPGGTVTLTCRSSTGAVTSGNYANWVQQTPGQAPRGLIGGTKFLAPGVPDRFSGSILGNKAALTITGAQADDESDYYCVLWYSNRWVFGGGTKLTVLGGGGSQVQLQQSGSELKKPGASVKVSCKASGYTFTNYGMNWVKQAPGQGLKWMGWINTYTGEPTYTDDFKGRFAFSLDTSVSTAYLQISSLKADDTAVYFCARGGFGSSYWYFDVWGQGSLVTVSSASTKGPSVFPLAPSSKSTSGGTAALGCLVKDYFPEPVTVSWNSGALTSGVHTFPAVLQSSGLYSLSSVVTVPSSSLGTQTYICNVNHKPSNTKVDKKVEPKSC
notes: scFv on the Fab heavy chain
